# Measured values from PMC9823007.
# Biological target: NyxB (His tag cleaved, for crystallisation, SEC-MALS and SAXS) (Brucella abortus 2308) (UniProt Q2YPZ9)
# Test: SEC-MALS
substance,measurement,value
"NyxB (His tag cleaved, for crystallisation, SEC-MALS and SAXS) (from UniProt Q2YPZ9 1-134) (natural protein)",stoichiometry N,2
